Laboratory results reported in article PMC4086636.

Each substance was assayed against domain 4 of the anthrax protective antigen (Bacillus anthracis) (UniProt P13423) (assay: cross-linking).
M18 scFv with L-DOPA at position H_D54 gave an Experimental Crosslinking (%) of 30.4%.
With M18 scFv with L-DOPA at position H_D56 the Experimental Crosslinking (%) was 36.2%.
Substance M18 scFv with L-DOPA at position H_G53 has an Experimental Crosslinking (%) of 40.3%.
In the case of M18 scFv with L-DOPA at position H_G55, the Experimental Crosslinking (%) is reported as 5.1%.
Substance M18 scFv with L-DOPA at position H_N58 has an Experimental Crosslinking (%) of 24.4%.
With M18 scFv with L-DOPA at position H_S31 the Experimental Crosslinking (%) was 51.9%.
With M18 scFv with L-DOPA at position H_W33 the Experimental Crosslinking (%) was 13.9%.
For M18 scFv with L-DOPA at position H_Y52, the Experimental Crosslinking (%) was 19.7%.
